Experimental data published in article PMC3737229, “Novel Dicarboxylate Selectivity in an Insect Glutamate Transporter Homolog” (PLoS ONE, 2013).

Tests used:
O=C(O)C[C@H](O)C(=O)O = system: T1, O=C(O)C[C@H](O)C(=O)O; test: two-electrode voltage clamp, transport currents in oocytes; assay type: cell-based, Culex quinquefasciatus; conditions: -60 mV, 96 mM NaCl Ringer, pH 7.5
T1 construct: synthetic gene, full length, in-frame C-terminal GFP (EGFP), pCDNA3.1; cRNA expressed in Xenopus laevis oocytes

N[C@@H](CCC(=O)O)C(=O)O = system: T2, N[C@@H](CCC(=O)O)C(=O)O; test: as above; assay type: cell-based, Culex quinquefasciatus; conditions: -60 mV, 96 mM NaCl Ringer, pH 7.5
T2 construct: synthetic gene, full length, in-frame C-terminal GFP (EGFP), pCDNA3.1; cRNA expressed in Xenopus laevis oocytes

CuqDCT = target: T3, CuqDCT (Culex quinquefasciatus, UniProt B0W0K5); test: as above; assay type: cell-based; conditions: -60 mV; 96 mM NaCl Ringer, pH 7.5
T3 construct: gene 6031434; synthetic gene, full length, in-frame C-terminal GFP (EGFP), pCDNA3.1; cRNA expressed in Xenopus laevis oocytes
T3 sequence (B0W0K5 1-483): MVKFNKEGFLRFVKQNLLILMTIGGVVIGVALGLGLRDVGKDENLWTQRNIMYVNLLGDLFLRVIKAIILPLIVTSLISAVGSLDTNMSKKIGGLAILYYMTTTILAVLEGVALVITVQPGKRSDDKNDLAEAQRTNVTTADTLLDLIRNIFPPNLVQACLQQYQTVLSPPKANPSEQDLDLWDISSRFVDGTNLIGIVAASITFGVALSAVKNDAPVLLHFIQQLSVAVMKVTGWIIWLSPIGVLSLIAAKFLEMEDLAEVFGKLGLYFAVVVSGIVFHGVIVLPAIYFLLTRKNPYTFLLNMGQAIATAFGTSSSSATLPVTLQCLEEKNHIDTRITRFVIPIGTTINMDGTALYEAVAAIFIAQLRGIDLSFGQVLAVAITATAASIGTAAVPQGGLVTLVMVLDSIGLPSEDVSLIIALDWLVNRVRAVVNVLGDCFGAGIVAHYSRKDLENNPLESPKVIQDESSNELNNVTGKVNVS

[1] = substrate: N[C@@H](CCC(=O)O)C(=O)O; test: as above; assay type: cell-based, Culex quinquefasciatus; conditions: -60 mV, 96 mM NaCl Ringer, pH 7.5
[2] = substrate: O=C(O)CCC(=O)C(=O)O; test: as above; assay type: cell-based, Culex quinquefasciatus; conditions: -60 mV, 96 mM NaCl Ringer, pH 7.5
[3] = substrate: O=C(O)C[C@H](O)C(=O)O; test: cells, lysate or membranes; conditions: -60 mV, 96 mM NaCl Ringer, pH 7.5

With CuqDCT (Culex quinquefasciatus; N428D) the Km (O=C(O)C[C@H](O)C(=O)O) was 8800 ± 1500 µM and the Km (N[C@@H](CCC(=O)O)C(=O)O) was 13.8 ± 1.3 µM.

`O=C(O)CCC(=O)O` [succinate] was tested, and the Km (CuqDCT) was 50.8 ± 2.3 µM.

B1: CuqDCT (Culex quinquefasciatus) (protein)
chain: MVKFNKEGFLRFVKQNLLILMTIGGVVIGVALGLGLRDVGKDENLWTQRNIMYVNLLGDLFLRVIKAIILPLIVTSLISAVGSLDTNMSKKIGGLAILYYMTTTILAVLEGVALVITVQPGKRSDDKNDLAEAQRTNVTTADTLLDLIRNIFPPNLVQACLQQYQTVLSPPKANPSEQDLDLWDISSRFVDGTNLIGIVAASITFGVALSAVKNDAPVLLHFIQQLSVAVMKVTGWIIWLSPIGVLSLIAAKFLEMEDLAEVFGKLGLYFAVVVSGIVFHGVIVLPAIYFLLTRKNPYTFLLNMGQAIATAFGTSSSSATLPVTLQCLEEKNHIDTRITRFVIPIGTTINMDGTALYEAVAAIFIAQLRGIDLSFGQVLAVAITATAASIGTAAVPQGGLVTLVMVLDSIGLPSEDVSLIIALDWLVNRVRAVVNVLGDCFGAGIVAHYSRKDLENNPLESPKVIQDESSNELNNVTGKVNVS
notes: synthetic gene, full length, in-frame C-terminal GFP (EGFP), pCDNA3.1; cRNA expressed in Xenopus laevis oocytes
B1 gave a Km [1] of 1085 ± 96 µM, a Km [2] of 20.2 ± 1.2 µM and a Km [3] of 10.5 ± 0.5 µM.
